Test results taken from patent US20140274782A1 (Stanford University, published 2014).

Experiments:
Test in all cases: ProtoArray, GST-treated control array;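 note: human protein microarray (about 9500 recombinant proteins) incubated overnight with GST alone plus SAM cofactor as the negative control for G9a SET domain methylation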
[1] = target: T1, HIC2-Hypermethylated in cancer 2 protein (human, UniProt Q96JB3 1-615, limits assumed)
T1 sequence (looked up): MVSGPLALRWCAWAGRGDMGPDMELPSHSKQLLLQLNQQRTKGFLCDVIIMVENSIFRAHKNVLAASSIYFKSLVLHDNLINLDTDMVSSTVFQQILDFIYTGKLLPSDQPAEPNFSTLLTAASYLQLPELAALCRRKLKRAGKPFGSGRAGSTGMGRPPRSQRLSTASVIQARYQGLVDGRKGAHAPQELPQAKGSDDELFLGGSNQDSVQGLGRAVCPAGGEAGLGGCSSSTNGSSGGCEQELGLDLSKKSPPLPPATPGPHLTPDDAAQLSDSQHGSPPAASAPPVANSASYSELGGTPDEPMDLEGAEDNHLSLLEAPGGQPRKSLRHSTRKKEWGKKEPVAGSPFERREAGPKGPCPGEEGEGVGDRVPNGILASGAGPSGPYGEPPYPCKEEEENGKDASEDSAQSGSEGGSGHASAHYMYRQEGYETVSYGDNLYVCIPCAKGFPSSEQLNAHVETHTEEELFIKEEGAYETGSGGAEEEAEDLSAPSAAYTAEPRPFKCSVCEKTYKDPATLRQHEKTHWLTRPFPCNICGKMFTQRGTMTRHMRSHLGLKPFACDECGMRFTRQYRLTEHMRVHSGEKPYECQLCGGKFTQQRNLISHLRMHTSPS

[2] = target: T2, C11orf73-chromosome 11 open reading frame 73 (C11orf73) (human, UniProt Q53FT3 1-197)
T2 sequence (looked up): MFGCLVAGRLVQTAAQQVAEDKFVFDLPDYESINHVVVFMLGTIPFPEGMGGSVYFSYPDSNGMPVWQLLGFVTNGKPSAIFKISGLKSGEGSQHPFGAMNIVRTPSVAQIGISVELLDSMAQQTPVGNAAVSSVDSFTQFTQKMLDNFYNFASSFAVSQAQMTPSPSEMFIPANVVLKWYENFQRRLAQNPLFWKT

[3] = target: T3, SNFT-Jun dimerization protein p21SNFT (SNFT) (human, UniProt Q9NR55 1-127)
T3 sequence (looked up): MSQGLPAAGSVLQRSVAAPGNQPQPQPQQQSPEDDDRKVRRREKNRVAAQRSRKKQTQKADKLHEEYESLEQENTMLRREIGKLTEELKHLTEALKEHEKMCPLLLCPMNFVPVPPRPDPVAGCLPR

[4] = target: T4, CD79A-B-cell antigen receptor complex-associated protein alpha-chain (human, UniProt P11912 33-226, limits assumed)
T4 sequence (looked up): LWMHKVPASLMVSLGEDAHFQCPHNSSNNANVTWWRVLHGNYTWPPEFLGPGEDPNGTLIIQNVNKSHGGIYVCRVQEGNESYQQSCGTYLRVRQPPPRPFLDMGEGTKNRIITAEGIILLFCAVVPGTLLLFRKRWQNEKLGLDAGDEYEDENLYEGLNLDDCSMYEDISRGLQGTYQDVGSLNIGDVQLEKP

[5] = target: T5, CLDN15-claudin 15 (CLDN15) (human, UniProt P56746 1-228)
T5 sequence (looked up): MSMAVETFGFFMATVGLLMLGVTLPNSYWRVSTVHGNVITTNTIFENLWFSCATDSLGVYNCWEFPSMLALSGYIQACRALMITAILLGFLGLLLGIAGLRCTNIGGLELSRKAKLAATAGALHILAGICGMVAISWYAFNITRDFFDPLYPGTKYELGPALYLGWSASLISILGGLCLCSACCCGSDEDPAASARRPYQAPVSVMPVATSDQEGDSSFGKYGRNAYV

[6] = target: T6, BLCAP-bladder cancer associated protein (BLCAP) (human, UniProt P62952 1-87)
T6 sequence (looked up): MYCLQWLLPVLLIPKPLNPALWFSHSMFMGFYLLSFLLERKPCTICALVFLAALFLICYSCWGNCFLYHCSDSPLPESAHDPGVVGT

[7] = target: MGC4473-hypothetical protein MGC4473 (MGC4473) (human)
[8] = target: T7, KIFC1-kinesin family member C1 (KIFC1) (human, UniProt Q9BW19 1-673)
T7 sequence (looked up): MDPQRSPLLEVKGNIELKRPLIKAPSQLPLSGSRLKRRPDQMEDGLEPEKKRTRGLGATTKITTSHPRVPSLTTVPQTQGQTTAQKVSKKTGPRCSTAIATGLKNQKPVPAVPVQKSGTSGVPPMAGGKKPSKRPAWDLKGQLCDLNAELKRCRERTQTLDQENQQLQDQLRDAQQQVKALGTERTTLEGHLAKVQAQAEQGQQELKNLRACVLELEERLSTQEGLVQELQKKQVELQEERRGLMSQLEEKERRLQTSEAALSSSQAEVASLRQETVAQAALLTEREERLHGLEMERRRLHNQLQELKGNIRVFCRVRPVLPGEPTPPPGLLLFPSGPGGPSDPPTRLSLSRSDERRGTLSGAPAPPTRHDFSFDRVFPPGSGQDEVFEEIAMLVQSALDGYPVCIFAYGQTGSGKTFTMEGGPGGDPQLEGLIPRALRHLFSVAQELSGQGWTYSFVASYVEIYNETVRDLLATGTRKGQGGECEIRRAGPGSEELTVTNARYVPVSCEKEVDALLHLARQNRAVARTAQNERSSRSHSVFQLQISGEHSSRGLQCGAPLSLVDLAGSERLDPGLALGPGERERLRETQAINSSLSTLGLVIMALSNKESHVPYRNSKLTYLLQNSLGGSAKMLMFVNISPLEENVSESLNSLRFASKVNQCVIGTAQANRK

[9] = target: T8, KCTD7-potassium channel tetramerisation domain containing 7 (KCTD7) (human, UniProt Q96MP8 1-289, limits assumed)
T8 sequence (looked up): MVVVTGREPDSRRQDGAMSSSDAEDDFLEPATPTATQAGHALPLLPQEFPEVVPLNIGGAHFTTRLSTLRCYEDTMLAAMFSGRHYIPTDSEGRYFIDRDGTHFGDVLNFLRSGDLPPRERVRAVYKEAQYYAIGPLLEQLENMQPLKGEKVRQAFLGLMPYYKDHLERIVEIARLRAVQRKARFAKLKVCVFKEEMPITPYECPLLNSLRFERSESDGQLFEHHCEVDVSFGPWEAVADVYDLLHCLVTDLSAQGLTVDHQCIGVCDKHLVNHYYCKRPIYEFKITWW

B1: 3× Flag-3×MBT (designed binder)
chain: EEWSSSQPATGEKKECWSWESYLEEQKAITAPVSLFQDSQAVTHNKNGFKLGMKLEGIDPQHPSMYFILTVAEVCGYRLRLHFDGYSECHDFWVNANSPDIHPAGWFEKTGHKLQPPKGYKEEEFSWSQYLRSTRAQAAPKHLFVSQSHSPPPLGFQVGMKLEAVDRMNPSLVCVASVTDVVDSRFLVHFDNWDDTYDYWCDPSSPYIHPVGWCQKQGKPLTPPQDYPDPDNFCWEKYLEETGASAVPTWAFKVRPPHSFLVNMKLEAVDRRNPALIRVASVEDVEDHRIKIHFDGWSHGYDFWIDADHPDIHPAGWCSKTGHPLQPPLGPREPSSASPGG
notes: also called Flag-tagged 3×MBT; 3xFlag-3xMBT; not shown: made by PreScission cleavage of GST-3× Flag-3×MBT
GST Average SNR [1]: 0.588
GST Average SNR [2]: -1.4
GST Average SNR [3]: 1.05
GST Average SNR [4]: -0.746
GST Average SNR [5]: -0.296
GST Average SNR [6]: 0.932
GST Average SNR [7]: 0.0125
GST Average SNR [8]: 0.745
GST Average SNR [9]: 1.09
